Experimental data reported in article doi:10.1101/2020.05.01.070730 (bioRxiv, 2020).

Assays:
MutS N279A = target: T1, MutS N279A (Pseudomonas aeruginosa, UniProt Q9HY08 1-855, N279A); assay: EMSA
T1 sequence: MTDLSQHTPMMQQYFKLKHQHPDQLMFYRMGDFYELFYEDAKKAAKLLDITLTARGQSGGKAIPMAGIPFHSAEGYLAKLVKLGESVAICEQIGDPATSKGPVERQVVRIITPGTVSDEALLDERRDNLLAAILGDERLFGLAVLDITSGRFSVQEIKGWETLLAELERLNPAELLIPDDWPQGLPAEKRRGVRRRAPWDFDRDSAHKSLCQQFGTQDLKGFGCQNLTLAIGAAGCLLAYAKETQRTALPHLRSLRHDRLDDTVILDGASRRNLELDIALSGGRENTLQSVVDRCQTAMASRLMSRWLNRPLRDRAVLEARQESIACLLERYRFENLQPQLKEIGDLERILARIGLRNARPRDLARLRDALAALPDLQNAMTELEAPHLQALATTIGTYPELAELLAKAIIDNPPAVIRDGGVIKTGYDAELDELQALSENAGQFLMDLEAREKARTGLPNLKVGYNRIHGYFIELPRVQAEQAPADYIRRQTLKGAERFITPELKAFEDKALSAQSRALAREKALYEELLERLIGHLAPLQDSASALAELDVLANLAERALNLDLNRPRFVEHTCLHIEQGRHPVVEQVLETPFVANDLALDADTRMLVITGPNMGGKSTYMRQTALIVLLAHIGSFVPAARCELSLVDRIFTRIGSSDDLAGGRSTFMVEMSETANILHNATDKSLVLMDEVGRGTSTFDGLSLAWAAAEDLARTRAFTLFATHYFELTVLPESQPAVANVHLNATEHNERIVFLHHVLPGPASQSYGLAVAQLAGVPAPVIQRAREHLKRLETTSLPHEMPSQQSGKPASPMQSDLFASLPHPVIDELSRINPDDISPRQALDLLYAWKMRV

MutS = target: T2, MutS (Pseudomonas aeruginosa, UniProt Q9HY08 1-855); assay: SPR
T2 sequence: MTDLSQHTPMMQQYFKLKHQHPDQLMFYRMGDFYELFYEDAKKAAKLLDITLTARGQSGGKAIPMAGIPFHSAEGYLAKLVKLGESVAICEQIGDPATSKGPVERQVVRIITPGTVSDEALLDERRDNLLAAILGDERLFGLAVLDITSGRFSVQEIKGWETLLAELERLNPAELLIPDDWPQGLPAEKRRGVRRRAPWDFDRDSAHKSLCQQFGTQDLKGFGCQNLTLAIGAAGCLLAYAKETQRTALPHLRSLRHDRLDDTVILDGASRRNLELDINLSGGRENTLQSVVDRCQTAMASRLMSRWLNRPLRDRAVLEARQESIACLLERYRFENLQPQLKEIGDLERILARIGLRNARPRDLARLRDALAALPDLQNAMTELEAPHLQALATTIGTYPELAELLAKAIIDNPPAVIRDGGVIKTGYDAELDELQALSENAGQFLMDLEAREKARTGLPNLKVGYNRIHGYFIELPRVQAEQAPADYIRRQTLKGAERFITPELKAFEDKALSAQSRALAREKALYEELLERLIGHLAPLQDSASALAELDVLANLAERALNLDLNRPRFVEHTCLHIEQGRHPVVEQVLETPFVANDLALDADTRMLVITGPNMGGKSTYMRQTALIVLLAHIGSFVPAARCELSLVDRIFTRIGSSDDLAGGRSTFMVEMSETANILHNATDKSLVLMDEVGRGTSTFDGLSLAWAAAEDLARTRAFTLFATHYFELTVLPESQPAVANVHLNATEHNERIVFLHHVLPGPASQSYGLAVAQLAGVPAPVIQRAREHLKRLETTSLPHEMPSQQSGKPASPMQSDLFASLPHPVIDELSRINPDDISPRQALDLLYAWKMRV

MutS E. coli = target: T3, MutS E. coli (Escherichia coli, UniProt P23909 1-853); assay: native PAGE shift
T3 sequence: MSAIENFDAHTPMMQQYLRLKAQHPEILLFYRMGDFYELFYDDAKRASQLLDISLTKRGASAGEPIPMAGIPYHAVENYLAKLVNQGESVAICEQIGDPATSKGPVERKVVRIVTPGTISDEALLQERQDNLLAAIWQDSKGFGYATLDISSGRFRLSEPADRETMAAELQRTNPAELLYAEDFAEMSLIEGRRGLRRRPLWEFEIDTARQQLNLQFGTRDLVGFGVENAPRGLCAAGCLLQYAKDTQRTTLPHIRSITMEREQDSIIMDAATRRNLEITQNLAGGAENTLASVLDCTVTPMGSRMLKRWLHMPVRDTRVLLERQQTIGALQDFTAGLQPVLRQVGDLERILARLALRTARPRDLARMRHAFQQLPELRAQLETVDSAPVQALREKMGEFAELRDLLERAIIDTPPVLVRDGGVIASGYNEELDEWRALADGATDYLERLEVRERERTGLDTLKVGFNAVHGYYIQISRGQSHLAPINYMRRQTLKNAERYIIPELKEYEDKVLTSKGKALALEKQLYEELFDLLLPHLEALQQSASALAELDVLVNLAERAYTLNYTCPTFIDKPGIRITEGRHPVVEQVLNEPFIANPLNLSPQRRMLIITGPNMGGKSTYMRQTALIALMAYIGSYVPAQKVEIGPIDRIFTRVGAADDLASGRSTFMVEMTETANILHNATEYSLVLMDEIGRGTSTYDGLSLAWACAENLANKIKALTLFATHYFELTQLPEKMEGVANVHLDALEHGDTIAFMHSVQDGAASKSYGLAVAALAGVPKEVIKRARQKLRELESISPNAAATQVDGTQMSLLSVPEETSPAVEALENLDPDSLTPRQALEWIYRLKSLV

B1: GT-pDNA (GT 8 nt from 3'-OH) (dsDNA)
DNA 1: ATGTGAATCAGTATGGTTGCTATCTGC
DNA 2: ATTTCCTTCAGCAGATAGTAACCATACTGATTCACAT
Kd (MutS N279A): 63.2 ± 2.4 nM
Kd (MutS): 53.3 ± 3.7 nM
binding result (MutS E. coli): binds

B2: GT-dsDNA (GT 18 nt from 3' end) (dsDNA)
DNA 1: ATGTGAATCAGTATGGTTGCTATCTGCTGAAGGAAAT
DNA 2: ATTTCCTTCAGCAGATAGTAACCATACTGATTCACAT
Kd (MutS N279A): 41.3 ± 5.2 nM

B3: pDNA (AT) (dsDNA)
DNA 1: ATGTGAATCAGTATGGTTACTATCTGC
DNA 2: ATTTCCTTCAGCAGATAGTAACCATACTGATTCACAT
Kd (MutS N279A): 430 ± 18 nM

B4: dsDNA (dsDNA)
DNA 1: ATGTGAATCAGTATGGTTACTATCTGCTGAAGGAAAT
DNA 2: ATTTCCTTCAGCAGATAGTAACCATACTGATTCACAT
Kd (MutS N279A): 358 ± 36.9 nM
